From publication PMC3302801, “Regulation of the vapBC-1 Toxin-Antitoxin Locus in Nontypeable Haemophilus influenzae”

Legend:
[1] = target: T1, VapB-1 (Haemophilus influenzae (nontypeable, R2866)) (UniProt E4QWH3); assay: DNase I footprinting; conditions: EMSA: 20 mM HEPES pH 7.5, 100 mM NaCl, 0.1 mM EDTA, 1 mM DTT, 50 ug/mL BSA, 5% glycerol, 1 nM DNA, 25 C (gel 4 C); DNase I: 25 mM Tris-HCl pH 7.4, 70 mM KCl …
T1 sequence: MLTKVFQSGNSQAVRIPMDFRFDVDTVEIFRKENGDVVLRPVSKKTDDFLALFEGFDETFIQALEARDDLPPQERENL

VapB-1 [2] = target: T2, VapB-1 (Haemophilus influenzae (nontypeable, …, UniProt E4QWH3 1-78)); assay: EMSA; 300:1; EMSA: 20 mM HEPES pH 7.5, 100 mM NaCl, 0.1 mM EDTA, 1 mM DTT, 50 ug/mL BSA, 5% glycerol, 1 nM DNA, 25 C (gel 4 C); DNase I: 25 mM Tris-HCl pH 7.4, 70 mM KCl, 7; conditions: protein: recombinant; tags: C-terminal polyhistidine (pET24b); chain copies: 2; blunt
T2 sequence: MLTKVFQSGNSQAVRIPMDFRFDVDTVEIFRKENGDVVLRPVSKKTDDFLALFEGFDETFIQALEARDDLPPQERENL

VapB-1 [3] = target: T2, VapB-1; assay: EMSA; up to 300:1; EMSA: 20 mM HEPES pH 7.5, 100 mM NaCl, 0.1 mM EDTA, 1 mM DTT, 50 ug/mL BSA, 5% glycerol, 1 nM DNA, 25 C (gel 4 C); DNase I: 25 mM Tris-HCl pH 7.4, 70 mM KCl, 7; conditions: protein: recombinant; tags: C-terminal polyhistidine (pET24b); chain copies: 2; label: 5'-32P sense strand; blunt

With “GTTAGGATCCTGAAACACTTTAGTAAGCATATTTACCCTCTCGTATATACTATGTATTTAATAAGTATATACTAATCATTTCAATTGCTGTATGCAAGTAAGAAGATCAAATTACCGTTGTTTTATTTAACCGCAATCATCGAGCGAATTCTAA (double strand) [153 bp vapBC-1 locus control region]” the binding [1] was “no binding”.

B1: 50US (dsDNA)
DNA 1: AACAACGGTAATTTGATCTTCTTACTTGCATACAGCAATTGAAATGATTA
DNA 2: TAATCATTTCAATTGCTGTATGCAAGTAAGAAGATCAAATTACCGTTGTT
B1: no binding (VapB-1 [2]).

B2: 50TIR (dsDNA)
DNA 1: AATGATTAGTATATACTTATTAAATACATAGTATATACGAGAGGGTAAAT
DNA 2: ATTTACCCTCTCGTATATACTATGTATTTAATAAGTATATACTAATCATT
B2: no binding (VapB-1 [3]).
